The target of experiment [1] is GPC3 expressed endogenously on HepG2 and Hep3B human hepatoma cells (human) (UniProt P51654). Kind of experiment: flow cytometry on HepG2 cells (endogenous GPC3), MFI.
Experiment [2] has the same target. The experiment is described as follows: flow cytometry on Hep3B cells (endogenous GPC3), MFI. In general terms: A flow cytometer gives signals particle by particle.
Experiment [3] concerns the target recombinant human GPC3 protein (human) (UniProt P51654). Kind of experiment: ELISA on plate-coated human GPC3, OD 450 nm. (In general: An ELISA detects its analyte on a solid surface through an enzyme-linked reagent.)
The target in experiment [4] is T1, GPC3 expressed endogenously on HepG2 and Hep3B human hepatoma cells (human, UniProt P51654 25-554).
T1 construct: Endogenous GPC3 of human hepatoma lines; also called HepG2 cells; Hep3B cells
Kind of experiment: flow cytometry on HepG2 cells (endogenous GPC3), MFI.

A word on the EC50 (read off the curve): it is the concentration giving half of the maximal effect.

Sequence of GPC3 expressed endogenously on HepG2 and Hep3B human hepatoma cells (human) (P51654 other isoform, or with tags, fused parts or gaps limits assumed, form in doubt): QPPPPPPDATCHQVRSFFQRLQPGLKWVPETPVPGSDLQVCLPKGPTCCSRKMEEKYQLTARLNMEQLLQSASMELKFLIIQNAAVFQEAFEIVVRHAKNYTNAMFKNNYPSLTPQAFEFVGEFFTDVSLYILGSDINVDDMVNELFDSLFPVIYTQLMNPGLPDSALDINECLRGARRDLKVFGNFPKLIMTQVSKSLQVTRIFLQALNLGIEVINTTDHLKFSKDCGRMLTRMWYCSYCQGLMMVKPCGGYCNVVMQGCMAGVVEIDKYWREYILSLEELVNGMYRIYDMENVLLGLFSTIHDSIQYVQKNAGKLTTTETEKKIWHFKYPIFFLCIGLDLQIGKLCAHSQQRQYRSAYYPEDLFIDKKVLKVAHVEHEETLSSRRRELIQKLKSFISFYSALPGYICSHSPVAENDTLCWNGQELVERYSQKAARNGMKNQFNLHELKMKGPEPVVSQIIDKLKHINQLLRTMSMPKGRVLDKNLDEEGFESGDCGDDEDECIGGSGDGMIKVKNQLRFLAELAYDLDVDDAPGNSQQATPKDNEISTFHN
Sequence of recombinant human GPC3 protein (human) (P51654 other isoform, or with tags, fused parts or gaps limits assumed, form in doubt): as above
T1 sequence (P51654 other isoform, or with tags, fused parts or gaps limits assumed, form in doubt): as above

For the molecule HN3 VHH-Fc (Fc fusion), the values for the EC50 (read off the curve) in experiment [1], in experiment [2] and in experiment [3] were 2 nM, 2 nM and 0.02 µg/mL, respectively.

B1: 1B01 llama-human chimeric bivalent VHH-Fc (Fc fusion)
chain: QVQLQESGGGLVQAGGSLRLSCAAVGLPFSNYAMGWFRQAPGEEREFVSAVSANGGNEYYADSVKDRFTISRDNAKNTVYLRMLSLKLEDTAIYYCATVRRRGGTFTVGSYRGQGTQVTVSS
notes: expressed in ExpiCHO; also called Clone 1B01; 1B01 llama VHH fused to human IgG1 Fc; not shown: human IgG1 Fc fused to the C-terminal of the VHH
With B1, in experiment [4], the “EC50 (read off the curve)” value was ~0.3 nM.

The values are drawn from patent US20240043558A1 (SHANGHAI HENLIUS BIOTECH, published 2024).
